Data published in PMC6355983, “Structure of the Large Extracellular Loop of FtsX and Its Interaction with the Essential Peptidoglycan Hydrolase PcsB in Streptococcus pneumoniae” (mBio, 2019).

T1: PcsB coiled-coil domain, PscBCC(47–267) (Streptococcus pneumoniae, UniProt A0A0H2US70 47-267)
T1 construct: PcsB peptidoglycan hydrolase, Streptococcus pneumoniae, coiled-coil domain, residues 47 to 267; also called PcsB-CC(47–267); His-PscBCC(47–267); source: E. coli strain derived from BL21(DE3)
T1 sequence (looked up): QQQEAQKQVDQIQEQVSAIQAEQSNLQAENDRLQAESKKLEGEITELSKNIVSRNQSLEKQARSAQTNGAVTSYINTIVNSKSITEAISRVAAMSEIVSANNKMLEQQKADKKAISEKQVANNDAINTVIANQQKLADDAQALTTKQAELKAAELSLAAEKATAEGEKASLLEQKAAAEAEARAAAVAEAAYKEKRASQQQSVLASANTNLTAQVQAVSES

T2: PcsB CC (Streptococcus pneumoniae, UniProt A0A0H2ZQ76)
T2 chain: T1 sequence (looked up)

B1: FtsX large extracellular loop 1 (FtsX_(ECL1)), residues 46 to 168 (domain or fragment, Streptococcus pneumoniae, UniProt Q04LE4 46-168, looked up)
chain: NTAKLATDIENNVRVVVYIRKDVEDNSQTIEKEGQTVTNNDYHKVYDSLKNMSTVKSVTFSSKEEQYEKLTEIMGDNWKIFEGDANPLYDAYIVEANAPNDVKTIAEDAKKIEGVSEVQDGGA
notes: FtsX, Streptococcus pneumoniae, large extracellular loop (ECL1), residues 46 to 168; Uniformly 15N-labelled when observed by NMR, unlabelled when added to 15N PcsBCC(47-254) and in ITC; also called wild-type (WT) FtsX_(ECL1); Spn ECL1; source: E. coli strain derived from BL21(DE3); LB or M9 minimal medium with 15NH4Cl
B2: FtsX ECL1 (protein)
chain: TAKLATDIENNVRVVVYIRKDVEDNSQTIEKEGQTVTNNDYHKVYDSLKNMSTVKSVTFSSKEEQYEKLTEIMGDNWKIFEGDANPLYDAYIVEANAPNDVKTIAEDAKKIEGVSEVQDGGA

Key:
[1] = biological target: T1, PcsB coiled-coil domain, PscBCC(47–267); experiment: ITC; titration of PscBCC with FtsX_(ECL1) (wild type or L115A M119A); 50 mM potassium phosphate, 50 mM NaCl, 0.5 mM EDTA, pH 7.0, 25.0°C; one-site binding model; conditions: both partners purified
[2] = biological target: T2, PcsB CC; experiment: ITC; given as Ka

| Binder | Ka [1] | Kd [1] | dH [1] | Kd [2] |
| --- | --- | --- | --- | --- |
| B1 | 30000 M⁻¹ | 34 ± 6 µM | -2.1 ± 0.2 kcal/mol |  |
| B2 |  |  |  | 33.3 µM |
